The values below come from a protein production outcome set (Wang et al. 2014).

The data set can be described thus: label from the status in PepcDB records.

Regarding “MKQIAFIGLGHMGAPMATNLLKAGYLLNVFDLVQSAVDGLVAAGASAARSARDAVQGADVVISMLPASQHVEGLYLDDDGLLAHIAPGTLVLECSTIAPTSARKIHAAARERGLAMLDAPVSGGTAGAAAGTLTFMVGGDAEALEKARPLFEAMGRNIFHAGPDGAGQVAKVCNNQLLAVLMIGTAEAMALGVANGLEAKVLAEIMRRSSGGNWALEVYNPWPGVMENAPASRDYSGGFMAQLMAKDLGLAQEAAQASASSTPMGSLALSLYRLLLKQGYAERDFSVVQKLFDPTQGQ”, the protein production result is “not failed”.
“MKQKNVYIVIGFMLFALFFGAANLIYPAFLGIYSGHQILWSIIGFCLTGVSLPLLGVIAVAKSGSGDVESLARPISKWYAIFYSSILYLSIGPFFAIPRTGATSFSVGIAPILGDNTTNKAIYAILFFGLSYFLAIKPSKLAENIGKFLTPTLLVVISILVIASFVHPAGNYGDAFNAGVGVNNAFKDFPFIAGLIQGYGTMDALASLVFAILVIEATKQFGAKTDKEMTKITLISGAIAILLLALVYIFVGRIGATSQSLFPFIDGSFTLHGNPVNGGQILSHASRFYLGGIGQAFLAVVIFLACLTTSTGLITSSAEYFHKLVPALSHIAWATIFTLLSAFFYFGGLSVIINWSAPVLFLLYPLTVDLIFLVLAQKCFNNDPIVYRTTIGLTFIPAIFDALLTLSQMTGLFHLPEAVVTFFQKTVPLGQFSMGWIIFAAIGFLIGLILSKTKKS”: the protein production entry is given as “failed”.
As to “MKQLMLYCRSGFEKECAGEIQDKATQLEVYGFPRVKKNSGYVVFECYQDGDAEKLVKGLDFSSLIFARQMFAVAAEFEALPSEDRISPILAELSEFESFPRCGDLRIETPDTNEAKELLKFCRKFTVPMRQALRGKGLMWNKDNAKKPVLHICFVAPGHCYVGYSLPGNNSQFFMGIPRLKFPADAPSRSTLKLEEAFHVFIPRDEWDERLAPGMWGVDLGACPGGWTYQLVKRSMFVHCVDNGMMADSLMETGQIKHHMVDGFKFEPDRKNVTWIVCDMVEKPARVAHLMGQWLLKGWAKEAIFNLKLPMKGRYDEVLQDLENLKMFLIENKVKFKLQAKHLYHDREEITIHIQCLSNISPH”, the protein production entry was “failed”.
Under “MKQMNVVLIGGGTGLSVLARGLREFPIDITAIVTVADNGGSTGKIRDVMDIPAPGDIRNVIAALSDSESILTQLFQYRFGENQVDGHSLGNLVIAGMTNITNDFGHAIKELSKVLNIKGQVIPSTNASVQLNAVMEDGEIVHGETNIPKTHKKIDRVFLEPSDVEPMNEAIEALEQADLIVLGPGSLYTSVISNLCVKGISEALLRTSAPKLYVSNVMTQPGETDNYDVKEHIDALTRQVGEPFIDFVICSSESYSKDVLQRYEEKNSKPVAVHKEQLKDSGIRVLTASNLVEISNEHYVRHNTKVLSKMIYELALELTSTIRFTPSDKKK” stands “not failed”; under “MKQPNYYQDVKQFHQTFHHPGADQPTAIPLDRGVKRATWTAEEAVVEFLHQSSQNETEFLAAIETFKAGLDQAVKKSLKETYPVTEVERLVGQGDALTDALYFIMGSFVEAGLEPGPLFEIVQQANMAKLGPDGQPIFRESDQKVMKPDGWLPPEPQLEAEVVRQMKEKA”, “not failed”.
The value for “MKQVNVDVAVIGGGTAGLGSYRAAKAHTDSVVMIEGGPYGTTCARVGCMPSKLLIAAAESVHQIEKAPKFGIHPQGEIVINGREVMERVKFERDRFVGFVLEGVDEIPAEDKISGYAKFLDDNTLQVDDHTIINAKRIVIATGSRPAYPAVWNELGDRLIINDDVFNWDDLPKSVAVFGPGVIGLELGQALHRLGVETKLFGLGGQVGPVTDPEVMAYANKAFNEEFYLDADVKVESMKRITTESGEERVEIQFINKQGELETNIVEYVLAATGRRPNTDKLGLENTSIELDERGVPTADFYTLQTSLPTVFIAGDASNQLPLLHEAADQARIAGDNAGRFPEIRAGLRRSKISAVFSDPQIAMVGETYKEITTRLGTCGCFATGEVSFENQGRSRVMLRNKGILHVYGEQGTGRFLGAEMMGPNAEHLAHLLAWAHQNKMTVSEMLDMPFYHPVIEEGVRTALRDLNAKLHLGPEMIKHCMDCGPGC” was “failed”.
For “MKQWIAALLLMLIPGVQAAKPQKVTLMVDDVPVAQVLQALAEQEKLNLVVSPDVSGTVSLHLTDVPWKQALQTVVKSAGLITRQEGNILSVHSIAWQNDNIARQEAEQARAQANLPLENRSITLQYADAGELAKAGEKLLSAKGSMTVDKRTNRLLLRDNKTALSALEQWVAQMDLPVGQVELSAHIVTINEKSLRELGVKWTLADAQHAGGVGQVTTLGSDLSVATATTHVGFNIGRINGRLLDLELSALEQKQQLDIIASPRLLASHLQPASIKQESEIPYQVSSGESGATSVEFKEAVLGMEVTPTVLQKGRIRLKLHISQNVPGQVLQQADGEVLAIDKQEIETQVEVKSGETLALGGIFTRKNKSGQDSVPLLGDIPWFGQLFRHDGKEDERRELVVFITPRLVSSELEHHHHHH”, the protein production entry was “not failed”.
On to “MKRAYVLLIGLSMLLISLIVPFPLALSFVILAGLFIAHFSKMEEKEVNMIITATVSLFIGLLGGLLGSMIHHNISSTWTLLSAHGGLFLIALIGYFFMVLILMTLGSMIDKVISKARSKSL”, for which the protein production result is listed as “failed”.
Consider “MKRCDRMNYREEYEKKLISPEEAAGLVESGMHIELGGAANTALIIDKYLAKRKDELENVKVGTFIDLAHYEFLKADPNGEVFEWSSGFLYRPVRKTSKELGPCVFRPNLYHDVPKIVREFSKDYDPIDIAYLVTTPMDKHGYFNFGLTCSHMKALAEVAEKVVVVVKENMPWVNGGYDECIHISEVDYIVEDNEMPVPFIPFSIPPTKEDEMIAENILNAETKDGRKLIQDGSTLQVGIGGLPDTVVKMLKEGGYKNLGVHTEMMGDGTLELIEEGVVTNDQKRLDRGKSVFTFALGSLKLYEYLDRNPEVATYPVDYTNDPFIIAQQPKMFSLNQAAEADLMGQINSEQMGLISPTGKLYQVSGTGGQLDFVMGCLFSRDRQGFSILAMYSTHNGTSRIKPILPPGAAVTVPRSMVQVVATEWGVAYLKGLTVKERAIAMIHLAHPDHREWLEKEAEKLGLLPPNYTIPAGKPDYLLYKRDLEHHHHHH”, for which the protein production result is given as “not failed”.
As to “MKRFARKETIYLRGEEARTLYRLEEGLVRVVELLPDGRLITLRHVLPGDYFGEEALEGKAYRYTAEAMTEAVVQGLEPRAMDHEALHRVARNLARQMRRVQAYEAHLQTGELRARIARYLLFLADTPLSARDRQGIYVTVSHEEIADATASIRESVSKVLADLRREGLIATAYRRVYLLDLAALEREAGSALEAA”, the protein production result was “not failed”.
As for “MKRFPGRDMRSLTELVLGRDKFRTALCCSVVGMLLTLLFLSSCHYTRPDLTSEELSEKTKDSLNYLYDRHYTWNTNLEVTTDSVTMECLPIKDTYIALYKGDRVVVAEFAIHPADSVDSVWVKLAHTQEEQGWIRETELKESFVPTDSISQAIHFFSDTHASYFMIIFALFVGVYLFRAFRRKQLQLVYFNDIDSVYPLFLCLLMAFSATVYESMQVFVPDTWEHFYFNPTLSPFKVPFILSVFLLSIWLFLIVALAVLDDLFRQLTPAAAVFYLLGLMSSCIFCYFFFILMTHIYIGYLFLAFFIWVFAKKVHRNISYKYRCGHCGEKLKEKGICPHCGAINE”, the protein production entry is “failed”.
With “MKRHYIFASHGSFANGLLNSVELILGKQPDIHTLCAYVEEEVDLTQQVEALVARFPAQDELIVITDIFAGSVNNEFVRFLSRPHFHLLSGLNLPLIIDLLISAAEDNTEKLITEALTNAKESIQYCNQTIASAMTMDKDF”, the protein production result is “not failed”.
Under “MKRKISSIIVVGIMLFQSLTMYPFITEAKENEQKEEINKPSKITKGLTNSLKYTKTILETGDTYDSVFPDSALAKVVAKEATGSENTTQLVTQADLNKIKSLNGYNKGISVLTGIDLLVNVTSISLNNNQVTDISPIDQLPNLVSLSVKNNQISSLILNAQNQLPKLTTIDIENNPDLNTIDIQDQPQLVDVKTSGYTGLRKLTTVIAKNNPELVNLGQYTIRNVYFSQVASLTKVELVNLPKVRKVNLERNSINELKVTDLAIEDLPLEENELTDTVFDNIQNLPNLKTLDLSKNQLEEVVLDKTDVENLPNLMTLDIQQNLAIKLINVQDQPQLVDVKTSDYKELSALTTVIAKNNPELVNLGQYTIRNVYFSQVASLTKVELVNLPKVRKVNLERNSINELKVTDLAIEDLPLEENELTDTVFDNIQNLPNLKTLDLSKNQLEEVVLDKTDVENLPNLMTLDIQQNLAIKLINVQDQPQLVDVKTSDYKELSALTTVIAKNNPELVNLGYPIMQNVYFSQVASLTKVELANLPKVRAVRLERNSINQIELNNLVSVKDVNLNTNKITNDSIEKFRGMPILATLNLNKNQITNINMLDGFPQMTTLNIDLNSISVLPSNLKTKMPKLSRISALNQTVTLGKAIVVDDSDLIINNEISNFEKLTEPSPISNFGTYANEKITWSSERIKNLTEVSFQFSELINVTGIDGTFSGKVTQPFKRSTTPVINADSEIHYPQGTEKTEAEFLKDVQAQTTDDLAIKSDFETMVNLKKVGKYTVTLNVENLDGIKATPKEVIVYIDAVQGANITVKYEDESGNKLAENSILTGNVGEEYSSSAKEILGYTLTEMPSNAQGEFSLEEQTVTYIYSKNPVPAKDITVQYTDEDGMELAPTETLSGNVDENYVTTAKTFTGYELIETPSNAEGKFSENAQTVTYVYRAIKAEPILAKEVTVNYQDELGAKISETEVLTGEIGETYTTVAKTIDGYTLIKSPTNANGIFNENPQTVTYVYQLQNSPIAANITVKHLDENNNELAPSEVLSGNVDEAYTTKPKEIKDYSLVKVPTNASGKFTTEAQTVIYHYKKNSIPTSSYITVKYVDETGKELAISKVLNGNINDSYATTAKEIKGYTLVQKPANATGKFTDQNQTIKYVYRANKAEVNPNPNSDVLGSNSNGDIQPTNDIKPTNDVQPTNEAPQTLPKTGSQPANLIFGLGILLVLLSTQWLHRNKRKKAKSHNC” stands “failed”; under “MKRKKPTIHDVAAKAGVGLGTVSRVLNDHPAVRHETRARVLRAMEELGYAPNPHARRIAGGRSYTVSVLLPFVATEFYRRLVEGIEGVLLEQRYDLALFPILSLARLKRYLENTTLAYLTDGLILASYDLTERFEEGRLPTERPVVLVDAQNPRYDSVYLDNRLGGRLAGAYLARFPGPIFAIAVEEEPDRAFRRTVFAERMAGFQEALKEAGRPFSPDRLYITRHSQEGGRLALRHFLEKASPPLNVFAGADQV”, “not failed”; under “MKRKTLLMAALMGGCSLQGMAQQITPKDVAGDKEYNRVCREYELKGGDSMELLQAYLDKYPDSRHKNRVLSLIASAYFMEGKYKEAIALFRSCDLEALPDKERDDCAMRLATSYLKEDNLREAAVWFTLLKEVSPLYQDDAVYNLAYIDYVEKRYDKALKSFQSLQNDAVYAALVPYYIGEIYLVKGNYQQARTVAKAYLEQYPAKKDVPQMERIWGEACFGLNDYQAAIPPLERYRESVSHPQRKPLYELGMSYYYTGVYSKAAATLGEMASVHDALSQNAYLHMGLAYLNLKERNRARMAFEQAANFSFDPKVKEQALYNYALCIHETSYSPFAESVTVFERFLNEFPNSPYTERVNDYLIEVYMNTRSYEAALKSIAKIEHPGTRIMEAKQKILFRLGTQAFANARFQEALEFFNQSLAVGQYNQATKADAYFWRGESNYRLDRFPQAGNDYRLYLEFATSKNGQEYGLALYNLGYTYFKQKNYGNAGTWFTRFVDRGSINERTMQADAYNRIGDCNFYDRRFEQARQDYARAVEIDPSLGDYSLYQEAFVRGLQRDYNGKVQTLNRLISDYPESQYMDDALYEQGRAFVQMEDNANAIARFNILVKKFPESNVARRAANEIGLLYYQDDKYPEAIQAYKQVIAGYPGSEEARLAQRDLKSIYIDLNKVDEYANFASTIPGGANFDVNERDSLTYVAAERVYMRGEVAEARNSFTRYLQTFPEGAFSLNANYYIGLIDYNQKAYESAARHLDKVLEYPNNKYSEDAMLMGAEMAYTAKDYEKALHIYKQLKDKAASMERRRLAKTGMLRSAHMLGNEEEIIFAATDLLADTKLAPELSNEAHYYRAKAYLDAGKTDGAMEDLKVLAKDTRNVYGAEAKYKVAQIYFDGGQTDKAEQEVLNYIEVSTPHTYWLARSFVLLADVYMKLGRNLDAKQYLLSLKQNYQADDDIAGMIESRLEKLKTEN”, “failed”.
